We go through one molecule from US20120107320A1 (UNIVERSITY COURT OF THE UNIVERSITY OF ABERDEEN, published 2012).

The target of this assay is T1, human soluble CTLA-4 (sCTLA-4), natural soluble form (human, UniProt P16410-5 36-174, limits assumed).
T1 construct: also called natural soluble CTLA-4; soluble form of cytotoxic T-lymphocyte antigen 4
T1 sequence (looked up): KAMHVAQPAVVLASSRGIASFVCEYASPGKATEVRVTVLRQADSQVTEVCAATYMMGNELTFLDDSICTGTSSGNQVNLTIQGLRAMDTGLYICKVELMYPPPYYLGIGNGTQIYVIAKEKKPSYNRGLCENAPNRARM
The experiment in a line: sandwich ELISA, capture with pan-specific mAb BNI3, detection with biotinylated JMW-3B3. The text has this: FIG. 7. Anti-sCTLA-4 JMW-3B3 distinguishes, in sera and culture supernatant, true natural soluble CTLA-4 from extracellular membrane-bound CTLA-4 (mCTLA-4). The extracellular portion of mCTLA-4 is encoded by exon 2 and is identical in sCTLA-4, mCTLA-4 and the recombinant soluble form of CTLA-4, CTLA4-Ig. […] Pan-specific anti-CTLA-4 mAb (clone BNI3) was used as the capture antibody.
On the technique in general: An ELISA detects its analyte on a solid surface through an enzyme-linked reagent.

B1: monoclonal anti-sCTLA-4 antibody JMW-3B3 (antibody, mouse IgG1, V domains shown)
VH: EVKLVNSGGGLVQPGNSLRLSCATSGFTFTDFYMSWVRQPPGKALEWLGFVRNRANGYTTEYSVSVKGRFIISRDNFQSTLFLQMNTLRAEDSGTYYCVRGPGDTADYTMDYWGQGTSVTVSS
VL: QAVVTQESAFTTSPGGTVILTCRSSTGAVTTNNYANWVQEKPDHLFTGLIGGTSNRAPGVPVRFSGSLIGDKAALTITGAQTEDDGMYFCALWYTTHFVFGGGTKVT
notes: It was biotinylated for detection in the sandwich ELISAs; also called mAb JMW-3B3; anti-sCTLA-4 mAb
With B1, the binding result is listed as “binds”.
